Assay [1] concerns the target European mink ACE2 fused to mouse Fc (EmkACE2-mFc) (European mink). The assay is described as follows: SPR.
Assay [2] deals with American mink ACE2 fused to mouse Fc (AmkACE2-mFc) (American mink (Neovison vison)). As to the kind of experiment: SPR. In general terms: Surface plasmon resonance follows binding to a sensor surface in real time, without labels.

Regarding “SARS-CoV-2 WT RBD (from UniProt P0DTC2 319-541) (domain or fragment)”, the Kd (in general, a measure of binding affinity in units of concentration) turned out to be 52.8 µM in assay [1] and 8.92 µM in assay [2].

Values taken from PMC9472616.
